Test results as given in PMC7810697, “Sarcolipin alters SERCA1a interdomain communication by impairing binding of both calcium and ATP” (Scientific Reports, 2021).

How the values were obtained:
[1] = target: T1, DDM-solubilized SR (native SERCA1a) (Oryctolagus cuniculus, UniProt P04191); test: Vanadate inhibition of phosphoenzyme formation, DDM-solubilized SR; assay type: biochemical, rabbit; conditions: Suppl. Fig. 7
T1 construct: DDM-solubilized native SERCA1a purification; from tissue; host or cells: rabbit skeletal muscle sarcoplasmic reticulum
Description: (§1) Transient formation of the phosphoenzyme intermediate was measured after incubation with [γ^32P]ATP followed by acid quenching, and filtration. For most experiments, 50 µL of enzyme at 10 µg/mL in a buffer containing 50 mM Tes-Tris pH7.5, 1 mM KCl, 5 mM MgCl2, 20% glycerol (w/w) and 0.5 mg/mL DDM, supplemented or not with SLN, was stored on ice. Concentrations of EGTA and calcium are specified in figure legends in order to reach the appropriate [Ca^2+]free and therefore the desired starting state for the ATPase. For kinetics of phosphorylation, we initiate reaction by addition of 2 µM [γ^32P]ATP (5 mCi/µmole), and calcium at 100 µM when specified. Reaction was quenched by addition of 2 mL of cold quenching medium (500 mM TCA + 30 mM H3P0_4) under vigorous mixing, and immediately stored on ice for 20–30 min to improve precipitation, a period of time critical for retention of the precipitate on the filter in presence of detergent. This was followed by filtration on GS filters (Millipore, Saint Quentin-Fallavier, France) and careful rinsing of the filters with diluted quenching medium (50 mM TCA + 3 mM H3P0_4). The amount of radioactivity bound to the filter was estimated by liquid scintillation counting (Perkin Elmer TriCarb Counter). […]

[2] = target: T1, DDM-solubilized SR (native SERCA1a); test: Kinetics of phosphorylation from [γ32P]ATP, DDM-solubilized SR; assay type: biochemical, rabbit; conditions: calcium-deprived state
Description: as §1

B1: SR: DDM-solubilized native rabbit sarco-endoplasmic reticulum SERCA1a, still containing native SLN (protein)
chain: MEAAHSKSTEECLAYFGVSETTGLTPDQVKRHLEKYGHNELPAEEGKSLWELVIEQFEDLLVRILLLAACISFVLAWFEEGEETITAFVEPFVILLILIANAIVGVWQERNAENAIEALKEYEPEMGKVYRADRKSVQRIKARDIVPGDIVEVAVGDKVPADIRILSIKSTTLRVDQSILTGESVSVIKHTEPVPDPRAVNQDKKNMLFSGTNIAAGKALGIVATTGVSTEIGKIRDQMAATEQDKTPLQQKLDEFGEQLSKVISLICVAVWLINIGHFNDPVHGGSWIRGAIYYFKIAVALAVAAIPEGLPAVITTCLALGTRRMAKKNAIVRSLPSVETLGCTSVICSDKTGTLTTNQMSVCKMFIIDKVDGDFCSLNEFSITGSTYAPEGEVLKNDKPIRSGQFDGLVELATICALCNDSSLDFNETKGVYEKVGEATETALTTLVEKMNVFNTEVRNLSKVERANACNSVIRQLMKKEFTLEFSRDRKSMSVYCSPAKSSRAAVGNKMFVKGAPEGVIDRCNYVRVGTTRVPMTGPVKEKILSVIKEWGTGRDTLRCLALATRDTPPKREEMVLDDSSRFMEYETDLTFVGVVGMLDPPRKEVMGSIQLCRDAGIRVIMITGDNKGTAIAICRRIGIFGENEEVADRAYTGREFDDLPLAEQREACRRACCFARVEPSHKSKIVEYLQSYDEITAMTGDGVNDAPALKKAEIGIAMGSGTAVAKTASEMVLADDNFSTIVAAVEEGRAIYNNMKQFIRYLISSNVGEVVCIFLTAALGLPEALIPVQLLWVNLVTDGLPATALGFNPPDLDIMDRPPRSPKEPLISGWLFFRYMAIGGYVGAATVGAAAWWFMYAEDGPGVTYHQLTHFMQCTEDHPHFEGLDCEIFEAPEPMTMALSVLVTIEMCNALNSLSENQSLMRMPPWVNIWLLGSICLSMSLHFLILYVDPLPMIFKLKALDLTQWLMVLKISLPVIGLDEILKFIARNYLEG
EPmax (vanadate series), DDM-solubilized SR [1]: 3.66+/-0.54 nmoles/mg of ATPase | maximum level of phosphorylated intermediate, DDM-solubilized SR ([2]; Suppl. Fig. 5A): 6.39+/-0.20 nmoles EP/mg ATPase | t1/2 of phosphorylation, DDM-solubilized SR ([2]; no SLN added (native SLN present), three replicates from two independent experiments, p<0.0001 vs recS1a alone, p=0.002 vs recS1a+Palm-SLN or recS1a+SLN): 10.4 s⁻¹
